Like-named read-outs stand apart in the source and are kept apart here.

In data set [1] the target is T1, GST-ABP9 (Zea mays, UniProt D2KNW6 1-385).
T1 sequence: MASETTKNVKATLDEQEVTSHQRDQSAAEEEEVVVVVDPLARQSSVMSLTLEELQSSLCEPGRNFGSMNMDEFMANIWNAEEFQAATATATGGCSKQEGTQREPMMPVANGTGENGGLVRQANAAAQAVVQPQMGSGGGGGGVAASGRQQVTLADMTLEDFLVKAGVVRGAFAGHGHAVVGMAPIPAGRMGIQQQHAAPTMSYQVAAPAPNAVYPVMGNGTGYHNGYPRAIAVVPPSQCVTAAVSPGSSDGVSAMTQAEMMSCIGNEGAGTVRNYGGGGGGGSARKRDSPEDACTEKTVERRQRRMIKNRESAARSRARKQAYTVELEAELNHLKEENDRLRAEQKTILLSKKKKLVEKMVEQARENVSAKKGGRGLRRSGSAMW
Put plainly: EMSA.

Data set [2] concerns the target T1, GST-ABP9. The data set is described as follows: EMSA. This is another data set of the same source. A general note: In EMSA bound probe runs differently from free probe, usually more slowly.

B1: mABRE2 (dsDNA)
DNA 1: GAAGTAACATGTTCGGTGG
DNA 2: CCACCGAACATGTTACTTC
For the molecule B1, the binding result in data set [1] is listed as “no binding”.

B2: ABRE2 (dsDNA)
DNA 1: GAAGTCCACGTGGAGGTGG
DNA 2: CCACCTCCACGTGGACTTC
Turning to B2, the binding result in data set [2] is reported as “binds”.

Values taken from publication PMC3044229.
